The results in this text go back to patent US20210403582A1 (JACOBIO PHARMACEUTICALS, published 2021).

Like-named read-outs stand apart in the source and are kept apart here.

The target in experiment [1] is T1, human LIF protein (human, UniProt P15018 23-202).
T1 construct: Bought recombinant protein (Sino Biological / Yiqiao Shenzhou 14890-HNAH) in most assays; also called recombinant human LIF protein; rhLIF
Description: competition ELISA: human LIF coated at 1 µg/mL, LIFR-Fc 0.6125 µg/mL added together with the antibody, A450. The protocol: (§1) The recombinant human LIF protein was coated on the enzyme label plate at a concentration of 1 μg/mL, LIFR protein (expressed fusedly with human FC) at a concentration of 0.6125 μg/mL was added (50 μL/well), and the anti-human LIF antibodies 38E10E1C11, P36-033 and 38E10E1C11R which is recombinantly expressed by CHO cells (SEQ ID NOs: 41 and 43) at different concentrations simultaneously were added separately (50 μL/well) and incubated for 2 h at room temperature. After washed four times with PBST, incubated with HRP-labeled goat anti-mouse FC secondary antibody for 1 h at room temperature. Then the plates were washed four times with PBST and added with TMB coloured solution in for 10 minutes. The absorption value at 450 nm is quantitated using an enzyme-labelling measuring instrument, and the data was analyzed and plotted using Origin pro 9 software.
(In general: An ELISA detects its analyte on a solid surface through an enzyme-linked reagent.)

Experiment [2] has as its target T1, human LIF protein. Described as above. As for the experimental part:
as §1
The source holds these as a separate data set.

In a further experiment the target is T2, human CNTF (human, UniProt P26441 1-200, limits assumed).
T2 sequence (looked up): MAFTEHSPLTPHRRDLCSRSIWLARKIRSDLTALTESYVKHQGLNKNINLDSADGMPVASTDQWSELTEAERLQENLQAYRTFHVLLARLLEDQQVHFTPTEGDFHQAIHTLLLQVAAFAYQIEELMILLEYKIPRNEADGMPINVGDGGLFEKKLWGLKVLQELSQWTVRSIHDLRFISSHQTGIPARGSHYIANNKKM
Put plainly: ELISA, human CNTF coated at 1 µg/mL, HRP goat anti-mouse Fab, A450. The protocol: (§2) After washed four times with PBST, HRP-labeled goat anti-mouse Fab secondary antibodies were added and incubated at room temperature for 1 h. After washed four times with PBST, TMB colored solution was added and color developing for 10 min at room temperature. The absorption value at 450 nm was read by the enzyme maker. The data were analyzed and plotted using Origin pro 9 software.

The next experiment concerns the target T3, human OSM (human, UniProt P13725 26-221, limits assumed).
T3 sequence (looked up): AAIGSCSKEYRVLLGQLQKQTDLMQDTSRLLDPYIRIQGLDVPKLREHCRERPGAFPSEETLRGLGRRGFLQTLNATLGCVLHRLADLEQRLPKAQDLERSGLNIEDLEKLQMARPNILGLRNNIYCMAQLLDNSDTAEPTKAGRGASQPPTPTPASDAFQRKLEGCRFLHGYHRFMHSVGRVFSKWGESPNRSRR
Put plainly: ELISA, human OSM coated at 1 µg/mL, HRP goat anti-mouse Fab, A450. As for the experimental part:
as §2

Experiment [3] addresses recombinant mouse LIF protein (mouse, UniProt P09056 24-203). Put plainly: ELISA, mouse LIF coated at 1 µg/mL, A450. The protocol:
The recombinant mouse LIF protein (purchased from ACRO Biosystems) was diluted to 1 μg/mL, and was coated on the enzyme label plate, 100 μL of protein was added into every well, and incubated overnight in 4° C. The enzyme label plates were taken out next day, and the liquid was discarded, and were washed with PBST three times and blocked with 2% BSA in PBS for 1 h at room temperature, then washed with PBST three times, and added anti-human LIF antibodies 38E10E1C11, 5D8 and P36-033 at different concentrations and incubated for 1 h at room temperature. The liquid was discarded, and the plates were washed with PBST four times. The plates were added with HRP-labeled goat anti-mouse Fab antibody or goat anti-human FC antibody and incubated for 1 h at room temperature. Then the liquid was discarded, and the plates were washed four times with PBST and incubated with TMB colored solution in 10 minutes at room temperature. Stop color development by adding 2 mol/L H₂SO₄, and the absorption value at 450 nm is quantitated using an automated plate photometer, and the results were shown in FIG. 2.

The target in experiment [4] is T4, Mut4 heterozygous LIF protein (human LIF with residues 166-202 of …, UniProt P15018 23-201, limits assumed).
T4 construct: Secreted into the supernatant of transfected 293T cells; also called Mut4 protein
Put plainly: western blot of 293T culture supernatants, primary antibody 38E10E1C11, HRP goat anti-mouse Fab.

The target in experiment [5] is T5, Mut3 heterozygous LIF protein (human LIF with residues 182-202 of …, UniProt P15018 23-201, limits assumed).
T5 construct: Secreted into the supernatant of transfected 293T cells; also called Mut3 protein
The experiment is described as above.

Experiment [6] deals with recombinant machin LIF protein (machin, UniProt A0A2K5UCA8 23-202). Description: ELISA, machin LIF coated at 0.5 µg/mL, A450. As for the experimental part: The recombinant machin LIF protein (purchased from Sino biological) was diluted to 0.5 μg/mL, and was coated on the enzyme label plate, 100 μL of protein was added into every well, and incubated overnight in 4° C. The enzyme label plates were taken out next day, and the liquid was discarded, and were washed with PBST three times and blocked with 2% BSA in PBS for 1 h at room temperature, then washed with PBST three times, and added anti-human LIF antibodies 38E10E1C11, 5D8 and P36-033 at different concentrations and incubated for 1 h at room temperature. The liquid was discarded, and the plates were washed with PBST four times. The plates were added with HRP-labeled goat anti-mouse Fab antibody or goat anti-human FC antibody and incubated for 1 h at room temperature. Then the liquid was discarded, and the plates were washed with PBST four times and incubated with TMB colored solution in 10 minutes at room temperature. Stop color development by adding 2 mol/L H₂SO₄, and the absorption value at 450 nm is quantitated using an automated plate photometer, and the results were shown in FIG. 3.
Sequence of recombinant machin LIF protein (A0A2K5UCA8 entry or part of it limits assumed): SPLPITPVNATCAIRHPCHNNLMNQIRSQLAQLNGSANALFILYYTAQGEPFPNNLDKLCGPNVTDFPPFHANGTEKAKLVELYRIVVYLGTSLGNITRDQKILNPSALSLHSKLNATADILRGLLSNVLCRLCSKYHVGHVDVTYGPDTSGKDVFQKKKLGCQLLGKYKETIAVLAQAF

B1: 38E10E1C11 antibody (antibody, mouse IgG1, kappa)
heavy: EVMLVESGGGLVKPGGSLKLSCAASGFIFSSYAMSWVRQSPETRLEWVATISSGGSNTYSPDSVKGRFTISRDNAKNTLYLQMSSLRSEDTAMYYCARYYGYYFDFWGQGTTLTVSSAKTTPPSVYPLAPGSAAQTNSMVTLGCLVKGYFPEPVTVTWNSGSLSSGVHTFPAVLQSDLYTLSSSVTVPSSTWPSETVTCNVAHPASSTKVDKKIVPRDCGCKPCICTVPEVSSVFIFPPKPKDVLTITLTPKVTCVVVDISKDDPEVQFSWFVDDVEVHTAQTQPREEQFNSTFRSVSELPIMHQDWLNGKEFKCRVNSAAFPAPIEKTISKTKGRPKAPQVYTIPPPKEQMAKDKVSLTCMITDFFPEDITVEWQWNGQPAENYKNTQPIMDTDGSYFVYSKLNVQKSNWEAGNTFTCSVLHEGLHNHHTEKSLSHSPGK
light: DIHMTQSPASLSASVGETVTITCRASENIYSYLAWYQQKQGKSPQLLVYNAKTLAEGVPSRFSGSGSGTQFSLKINSLQPEDFGSYYCQHHYVTPLTFGAGTKLELKRADAAPTVSIFPPSSEQLTSGGASVVCFLNNFYPKDINVKWKIDGSERQNGVLNSWTDQDSKDSTYSMSSTLTLTKDEYERHNSYTCEATHKTSTSPIVKSFNRNEC
notes: Mouse IgG1, kappa light chain; also called 38E10E1C11 mAb; mAb38E10E1C11
Regarding B1, the results for the “IC50 (read off the curve)” value in the experiment with human LIF protein [1] and with human LIF protein [2] were roughly 0.3 µg/mL and roughly 0.1 µg/mL, respectively. For the same molecule, the binding result is recorded as “no binding (tested: 25 ug/ml)” with human CNTF; “no binding (tested: 25 ug/ml)” with human OSM; “no binding (tested: 100 µg/mL (log 2))” in experiment [3]; “no binding” in experiment [4]; “binds” in experiment [5]. Also, the EC50 (read off the curve) (commonly the concentration needed to bring the measured effect to its halfway point) in experiment [6] is roughly 0.07 µg/mL.
